± gives the uncertainty stated by the source.

The nature of the series: protein stability index of a GFP-peptide fusion (yeast GPS) (PSI 1-4); higher = more stable; sorted into four equal gates, so the index is relative within each strain. In short, it runs like this: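 For each peptide, the protein stability index sums the read frequency in every gate after multiplying it by the gate number. Read frequencies came from plasmids that were PCR-amplified from each gate and Illumina-sequenced, with reads assigned to strains by barcodes. The gates were four equal bins of GFP/Cherry fluorescence ratio applied to mid-log yeast in leucine-free medium carrying a pooled library of tiled 17-residue yeast protein peptides fused downstream of GFP on a Cherry-expressing plasmid.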

As for EASSLGYLDDSEILIIS [IRR1], the protein stability index (doa10∆) turned out to be 2.1 ± 0.048, the protein stability index (pdr5∆) stood at 1.85 ± 0.037, the protein stability index (san1∆) was found to be 1.91 ± 0.1 and the protein stability index (ubr1∆) is 1.87 ± 0.036.

Consider EASTVPWGDYLQLETPA [BRR2], for which the protein stability index by setting is: (doa10∆) 1.42 ± 0.066; (pdr5∆) 2.13 ± 0.16; (san1∆) 2.58 ± 0.14; (ubr1∆) 1.53 ± 0.098.

For the sequence EAVELPLVQADLYEQIG [RPT3], the protein stability index worked out at 3.17 ± 0.15 (doa10∆), 2.81 ± 0.24 (pdr5∆), 3.39 ± 0.12 (san1∆) and 2.93 ± 0.17 (ubr1∆).

EAVIDEKLEVIADELMK [ITC1] had a protein stability index (san1∆) of 3.21 ± 0.25 and a protein stability index (ubr1∆) of 3.27 ± 0.12.

As to ECYKQLFLTAPDSCNMQ [YCS4], the protein stability index is, setting by setting: (doa10∆) 2.42 ± 0.11; (pdr5∆) 2.21 ± 0.16; (san1∆) 2.85 ± 0.12; (ubr1∆) 2.5 ± 0.083.

On to EDAKLKTDLELLVERLK [RPN1], for which the protein stability index runs as follows: (doa10∆) 1.24 ± 0.074; (pdr5∆) 1.19 ± 0.049; (san1∆) 1.29 ± 0.14; (ubr1∆) 1.51 ± 0.073.

In the case of EDAKYVINLKQIAKFVV [RPT1], the protein stability index runs as follows: (doa10∆) 1.61 ± 0.12; (pdr5∆) 2.4 ± 0.2; (san1∆) 1.8 ± 0.21; (ubr1∆) 1.96 ± 0.1.

EDDEFEDFPIDTWANGE [SEM1] gave a protein stability index (doa10∆) of 3.32 ± 0.098, a protein stability index (pdr5∆) of 3.26 ± 0.11, a protein stability index (san1∆) of 2.85 ± 0.11 and a protein stability index (ubr1∆) of 3.03 ± 0.078.

Regarding EDEEEEEEVTDQLEDLR [QCR6], the protein stability index amounted to 3.52 ± 0.28 (pdr5∆), 3.47 ± 0.083 (san1∆) and 3.25 ± 0.089 (ubr1∆).

Turning to EDFLDKSYYLNTVMLQG [AAR2], the protein stability index is 2.02 ± 0.067 (doa10∆), 2.24 ± 0.097 (pdr5∆), 2.24 ± 0.15 (san1∆) and 1.22 ± 0.052 (ubr1∆).

EDFLHFIVAEYIQQKKV [SRB4]: the protein stability index stood at 2.57 ± 0.1 (doa10∆), 2.79 ± 0.078 (pdr5∆), 2.28 ± 0.1 (san1∆) and 2.9 ± 0.067 (ubr1∆).

On to EDFQKRQQKLLEDQQRQ [SWI1], for which the protein stability index (doa10∆) stood at 3.21 ± 0.11, the protein stability index (pdr5∆) is 3.16 ± 0.051, the protein stability index (san1∆) was found to be 3.14 ± 0.057 and the protein stability index (ubr1∆) was determined as 3.19 ± 0.047.

Turning to EDLLECLDRCKEQYNRY [MTR3], the protein stability index is 3.18 ± 0.11 (doa10∆), 3.46 ± 0.08 (pdr5∆), 3.24 ± 0.079 (san1∆) and 3.38 ± 0.085 (ubr1∆).

For EDMIDQVSKKLSSIEAS [SMC3], the protein stability index reads like this: (doa10∆) 3.07 ± 0.16; (pdr5∆) 2.54 ± 0.15; (san1∆) 2.84 ± 0.12; (ubr1∆) 3.05 ± 0.12.

The sequence EDMIRSVFDATSDPVMH [RPN1] gave a protein stability index (san1∆) of 3.15 ± 0.23.

Take EDVVAISSRTFGQRAVL [RPS0A]: the protein stability index (doa10∆) was 3.3 ± 0.11, the protein stability index (pdr5∆) was 3.03 ± 0.056, the protein stability index (san1∆) came to 3.02 ± 0.085 and the protein stability index (ubr1∆) was found to be 3.1 ± 0.047.

As to EEAPAPTPAASAPAPAA [FAS2], the protein stability index is, setting by setting: (doa10∆) 2.8 ± 0.095; (pdr5∆) 2.95 ± 0.076; (san1∆) 2.85 ± 0.091; (ubr1∆) 3.02 ± 0.1.

Take EEDYNEFNSIDRVIFRV [PRP8]: the protein stability index came out at 3.27 ± 0.1 (doa10∆), 3.17 ± 0.11 (pdr5∆), 3.02 ± 0.19 (san1∆) and 2.94 ± 0.068 (ubr1∆).

Turning to EEEYDETHETNISNAKL [YAR002W/NUP60], the protein stability index (doa10∆) turned out to be 3.35 ± 0.073, the protein stability index (pdr5∆) was determined as 3.21 ± 0.09, the protein stability index (san1∆) came out at 3.44 ± 0.087 and the protein stability index (ubr1∆) turned out to be 3.31 ± 0.065.

For EEIPINSSEQESDYEPN [SIR3], the protein stability index was 2.82 ± 0.068 (doa10∆), 3.15 ± 0.067 (pdr5∆), 3 ± 0.045 (san1∆) and 2.77 ± 0.048 (ubr1∆).

For the sequence EEISRLQRDLIQTKEQV [YIL149C/MLP2], the protein stability index (doa10∆) was found to be 2.77 ± 0.095, the protein stability index (pdr5∆) was determined as 2.98 ± 0.15, the protein stability index (san1∆) came out at 3.13 ± 0.14 and the protein stability index (ubr1∆) was determined as 3.11 ± 0.082.

As for EEIVSNSSRFSDPMLQR [YCS4], the protein stability index was 3.07 ± 0.096 (doa10∆), 2.95 ± 0.082 (pdr5∆), 3.28 ± 0.096 (san1∆) and 3.07 ± 0.056 (ubr1∆).

As for EEKQKSYKFPRGTTAVL [PUP1], the protein stability index came to 3.37 ± 0.12 (doa10∆), 3.11 ± 0.13 (pdr5∆), 3.14 ± 0.099 (san1∆) and 2.91 ± 0.088 (ubr1∆).

Consider EELFTQLFHSMSIVFGD [UBP6], for which the protein stability index runs as follows: (doa10∆) 3.17 ± 0.087; (pdr5∆) 3.35 ± 0.087; (san1∆) 3.38 ± 0.05; (ubr1∆) 2.98 ± 0.089.

Turning to EELINAAKGSSTSYAIK [RPS5], the protein stability index reads like this: (doa10∆) 2.66 ± 0.077; (pdr5∆) 1.88 ± 0.051; (san1∆) 1.43 ± 0.068; (ubr1∆) 1.76 ± 0.044.

As to EELRGQQTEHETEIKDL [SMC4], the protein stability index is 3.34 ± 0.13 (doa10∆), 3.43 ± 0.094 (pdr5∆), 3.48 ± 0.067 (san1∆) and 3.37 ± 0.053 (ubr1∆).

The values are drawn from the supplement of paper PMC9732359.
